The results in this text go back to PMC3936742 (Nucleic Acids Research, 2013).

This test addresses T1, Flag-MnmC(o), C-terminal oxidoreductase domain of MnmC (amino acids 250-668) (E. coli, UniProt P77182 250-668).
T1 sequence (looked up): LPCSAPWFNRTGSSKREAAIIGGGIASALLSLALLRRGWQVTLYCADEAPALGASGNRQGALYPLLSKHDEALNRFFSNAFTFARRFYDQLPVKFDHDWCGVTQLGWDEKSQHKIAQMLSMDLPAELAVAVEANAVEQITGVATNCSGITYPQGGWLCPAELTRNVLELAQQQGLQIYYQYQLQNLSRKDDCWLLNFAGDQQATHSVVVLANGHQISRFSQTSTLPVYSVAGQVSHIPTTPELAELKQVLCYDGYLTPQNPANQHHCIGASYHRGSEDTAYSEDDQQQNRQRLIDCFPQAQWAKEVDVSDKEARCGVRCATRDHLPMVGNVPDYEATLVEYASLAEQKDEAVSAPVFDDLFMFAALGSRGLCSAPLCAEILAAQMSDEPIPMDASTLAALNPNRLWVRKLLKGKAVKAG
In words: SPR; His-MnmC(m) captured (~600 RU) on anti-His monoclonal antibody coupled to a CM-5 chip; Flag-MnmC(o) at various concentrations in TBS buffer, 30 µl/min, 25°C; apparent equilibrium constant. The note with it: both partners purified.

B1: His-MnmC(m), MnmC(m) domain fused at its N-terminal end to a 6x-His-epitope (domain or fragment, E. coli, UniProt P77182 1-250, looked up)
chain: MKHYSIQPANLEFNAEGTPVSRDFDDVYFSNDNGLEETRYVFLGGNQLEVRFPEHPHPLFVVAESGFGTGLNFLTLWQAFDQFREAHPQAQLQRLHFISFEKFPLTRADLALAHQHWPELAPWAEQLQAQWPMPLPGCHRLLLDEGRVTLDLWFGDINELTSQLDDSLNQKVDAWFLDGFAPAKNPDMWTQNLFNAMARLARPGGTLATFTSAGFVRRGLQDAGFTMQKRKGFGRKREMLCGVMEQTLPL
Turning to B1, the Kd amounted to 87 ± 15 nM.
